Results on one substance are retold here after patent publication US20230049152A1.

The assay has as its target human CCR8 (human) (UniProt P51685). Kind of assay: cell-based or functional assay.

Consider “murine anti-human CCR8 mAb L263G8 (Biolegend) (antibody)”, for which the ADCC reporter EC50, mFcgRIV Jurkat cells with CHO/hCCR8 (FIG. 11D) came to 0.28 nM; the CCL1 blocking potency IC50, Ca2+ influx was 23.6 nM; the induction fold at about 1 nM antibody, mFcgRIV Jurkat NFAT-luciferase reporter is greater than 10 fold; the induction fold plateau at about 40 nM antibody, mFcgRIV Jurkat NFAT-luciferase reporter worked out at 11 fold.
